Measured values reported in PMC3462190, “A Peptidic Unconjugated GRP78/BiP Ligand Modulates the Unfolded Protein Response and Induces Prostate Cancer Cell Death” (PLoS ONE, 2012).
Where no end group is shown, it is not given here.

Tested on: SBD of GRP78/BiP
Assay: GST pull-down with substrate binding domain (SBD) of GRP78/BiP
Conditions: 10 µg GST-GRP78(SBD), 500 µg (N-terminal peptide: 100 µg) lysate of HEK-293 cells expressing HA-tagged construct
Method: Expression of GST fusion proteins for GST-pull-down experiments were performed essentially as described previously.
Figure 1 Bag-1 proteins interact with the molecular chaperone GRP78/BiP. A. The Bag-1 family of proteins binds GRP78/BiP. GST pull-down assay was performed incubating 5 µg each of GST-fused Bag-1 proteins with 400 µg of 22Rv.1 cell lysate. Western blotting with a specific antibodiy against GRP78/BiP was used to detect the binding and an anti-GST antibody was used to determine the amount of bacterially purified protein employed in the assay. B. Bag-1 and GRP78 interact in vivo. GRP78 was immunoprecipitated with an anti-GRP78/BiP antibody or IgG as control in 22Rv.1 cells. Western blotting with an anti-Bag-1 and anti-GRP78 antibody was performed to determine GRP78-Bag-1 interaction. C. Bag-1 and GRP78/BiP show a perinuclear colocalization. Confocal microscopic analyses were carried out in 22Rv.1 cells that have been paraformaldehyde-fixed and stained with a Bag-1 antibody to detect Bag-1 (green channel) and a GRP78/BiP specific antibody to detect GRP78/BiP (red channel). The orange staining in the merge of the two channels indicates the degree of co-localization of the two proteins. All images (40X) were acquired with a Leica TCS SPE confocal microscope (Leica Microsystems; Scale bars indicate 25 µm). D. Diagrammatic representation of the domains of GRP78. E. Bag-1 binds to multiple sites on GRP78. GST-pull down assay performed incubating 500 µg lysate of HEK-293 cells transfected with an HA-tagged Bag-1 and 10 µg GST-fused GRP78 full length and its ATPase and substrate binding domain (SBD). Western blot analysis was carried out using an HA antibody to detect the Bag-1-tagged protein.
Figure 2 Identification of Bag-1 peptide interfering with the action of GRP78/BiP. […] Depicted in blue and red are the ubiquitin-like domain and the BAG domain respectively. B. Identification of the Bag-1 peptide binding to GRP78/BiP. GST-pull down assay performed incubating 500 µg lysates from HEK-293 cells transfected with the indicated Bag-1 constructs and 10 µg of GST-GRP78(SBD) or GST as control. Western blot analysis with an HA antibody to detected the Bag-1 mutants is shown. […] C. The Bag-1 68 amino acid peptide binds in vivo to GRP78. HEK 293 cells were co-transfected with pcDNA-HA-tagged Bag-1 peptide. […] Thereafter luciferase activity was measured. Results are expressed as percentage of refolding activity relative to non-heat-shocked cells and presented as bar charts of the average of three independent experiments ± SEM. *p<0.05. […]

| Molecule | interaction with SBD of GRP78/BiP | interaction with SBD of GRP78/BiP (listed as 68 amino acid sequence) | interaction with SBD of GRP78/BiP (listed as full length 68 amino acid peptide) |
| --- | --- | --- | --- |
| N-terminal peptide: N-terminal 40 residues of the Bag-1 peptide (Bag-1L 202–241) (TPLSALGIQDGCRVMLIGKKNSPQEEVELKKLKHLEKSVE; not fully specified) | interacted preferentially with the SBD | – | – |
| Bag-1: cochaperone Bag-1, HA-tagged (pcDNA3.1-HA-Bag-1), or endogenous (protein, left off: HA, end not stated, kept, cochaperone Bag-1, HA-tagged (pcDNA3.1-HA-Bag-1), or endogenous) TPLSALGIQDGCRVMLIGKKNSPQEEVELKKLKHLEKSVEKIADQLEELNKELTGIQQGFLPKDLQAE | interacted not only with the full length GRP78/BiP but also with its ATPase and SBD | – | – |
| Bag-1 peptide: internal sequence of 68 amino acids of Bag-1 (Bag1-L 202–269), HA-tagged, expressed from pcDNA3 (also: HA tag, end not given here) TPLSALGIQDGCRVMLIGKKNSPQEEVELKKLKHLEKSVEKIADQLEELNKELTGIQQGFLPKDLQAE | – | required for binding the SBD of GRP78/BiP | interacted with both the SBD and ATPase binding domains of GRP78 |
